Laboratory results from US20120135912A1 (PERSEID THERAPEUTICS, published 2012).
Residue numbers refer to the chain shown, from its start. Names may count otherwise. “And” between values parts separate entries of the source, which are not always exact repeats. Equal entries are not always repeated.

B1: 2D-VCAM-1 variant Clone 46 (ligand)
chain: FKIETTPESRYLAQIGDSVSLTCSTTGCESPFFSWRPQLDAPLNGKVTNEGTTSTLTMNPVSFGNEHSYLCTATCESRKLEKGIQVEIYSFPKDPEIHLSGPLEAGKPITVKCSVADVYPFDRLEIDLLKGDHLMKSQEFLEDADRKSLETKSLEVTFTPVIEDIGKVLVCRAKLHIDEMDSVPTVRQAVKELQVYISP
notes: also called Clone 046; not shown: His tag
B2: 2D-VCAM-1 variant Clone 47 (ligand)
chain: B1 chain with Q38L, A41S
notes: also called Clone 047; not shown: His tag
B3: Q38L-2D-VCAM-1 (ligand)
chain: B1 chain with P37T, Q38L, L39I, A41S
notes: also called Q38L 2D-VCAM-1 polypeptide; not shown: His tag
B4: 2D-VCAM-1 variant Clone 59 (ligand)
chain: B1 chain with Q38L, A41S, L141F, D145A, R146W
notes: also called Clone 059; not shown: His tag
B5: 2D-VCAM-1 variant Clone 146 (ligand, not shown: small tags and cut ends)
chain: B1 chain with F32L, S34F, Q38L, A41S, T74R, K79S

Experiments:
[1] = biological target: T1, human VLA4 (integrin alpha4beta1) on the surface of U937 cells (human, UniProt P13612 34-1032; P05556 21-798); test: cell-based or functional assay
[2] = biological target: T2, human LPAM-1-Fc (alpha4-Fc/beta7-Fc heterodimer) (human); test: ELISA, LPAM-1-Fc coated, 1 mM MnCl2; from EC50 values
T2 construct: Soluble heterodimer from CHO cells, Protein A purified
Protocol: The relative binding affinities of various 2D-VCAM variant proteins to immobilized LPAM-1-Fc (α4-Fc/β-7-Fc) heterodimer, relative to a control protein (e.g., Q38L-2D-VCAM-1 or human 2D-VCAM-1), were determined using a solid-phase ELISA assay. MAXISORP™ ELISA plates (NUNC) were coated overnight at 4° C. with 50 ul LPAM-1-Fc heterodimer (2 ug/ml in TBS-M, TBS (25 mM TRIS-HCl pH 7.5, 150 mM NaCl with 1 mM MnCl2), washed with TBS-T (TBS with 0.05% Tween-20), blocked with 200 ul 3% milk in TBS-M for 1 hr at room temperature, and washed again with TBS-T. A four-fold dilution series of the purified 2D-VCAM-1 variants to he assayed was made in COSTAR U-bottom plates in TBS-TMC (TBS with 0.05% Tween-20, 1 mM MnCl2 and 1% casein; Sigma) with a starting concentration of 8.2 uM (200 ug/ml). The dilution, series were transferred into the ELISA plate which was incubated at room temperature for 2 h and subsequently washed with TBS-T. Bound 2D-VCAM-1 protein was detected by incubation with 0.5 ug/ml of biotinylated anti-human VCAM antibody (R&D Systems, Catalog No. BAF809) in TBS-TMC for 1 h at room temperature followed by a TBS-T wash and subsequent incubation with 1:2000 dilution of streptavidin-HRP (BD Biosciences, Catalog No. 554066) in TBS-TMC for 30 min at room temperature. […] Typical development times ranged from 5-15 min and development was stopped by addition of 50 ul 2M H₂SO₄ (EM, Catalog No. SX1244-75). […] Fold-improvement in binding was calculated relative to a control protein (Q38L-2D-VCAM-1) assayed on the same plate.

[3] = biological target: T2, human LPAM-1-Fc (alpha4-Fc/beta7-Fc …); test: SPR (BIACORE), retest with new polypeptide preparations and new LPAM-1-Fc
Protocol: In this screening method, Biacore sensor chips were derivatized with anti-human IgG. After capture of VLA4-Fc or LPAM-1-Fc ligands on these surfaces, 2D-VCAM-1 variant polypeptides in buffer were allowed to flow over the ligand-coated sensor chips. The ability of a 2D-VCAM variant polypeptide to bind to a specific binding partner (i.e., VLA4-Fc or LPAM-1-Fc) was evaluated. Control protein (i.e., human 2D-VCAM-1 polypeptide (SEQ ID NO:2) or Q38L-2D-VCAM-1 polypeptide (SEQ ID NO:10)), was also allowed to flow over the ligand-coated sensor chips and the abilities of these molecules to bind to VLA4-Fc or LPAM-1-Fc were similarly evaluated for comparison. Using the Biacore system, the association (kₒₙ) and dissociation (koff) rate constant of the protein of interest binding to VLA4-Fc or LPAM-1-Fc ligands can be evaluated and used to calculate the equilibrium dissociation constant, KD. Variant 2D-VCAM-1 polypeptides having increased binding affinities for VLA4-Fc and/or LPAM-1-Fc, compared to human 2D-VCAM-1 and/or Q38L-2D-VCAM-1, were identified.
All BIACORE analyses were performed on a BIACORE 2000 system or BIACORE 3000 system (GE Healthcare) at room temperature (RT, 25° C.), HBS-P buffer (10 mM Hepes (pH 7.4), 150 mM NaCl, 0.005% surfactant P20) supplemented with 1 mM MnCl₂ (HBS-P-Mn) was used as the flow buffer for all experiments except where indicated.
Table 6B presents binding affinities of representative 2D-VCAM-1 variant polypeptides of the invention to LPAM-1-Fc when retested with new polypeptide preparations and new LPAM-1-Fc ligand and measured by the standard BICORE assay described above. The controls human 2D-VCAM-1 or the Q38L 2D-VCAM-1 polypeptide was not reassayed.

[4] = biological target: T1, human VLA4 (integrin alpha4beta1) on …; test: static cell adhesion assay: U937 cells on immobilized 7D-VCAM-1 in the presence of the soluble polypeptide; blocked ligand: immobilized 7D-VCAM-1 (Example 13)
Protocol: Prior to assaying, the U937 cells were re-suspended in labeling buffer (RPMI 1640 culture media without phenol red, 10% FBS; Invitrogen), then labeled with 0.5 μg/ml Calcein-AM at 37° C. for 30 minutes on a rotator. Subsequently, the cells were washed three times with labeling buffer then resuspended at 5×10^6 cells/ml in assay buffer (HEPES CaMgMn buffer: 50 mM HEPES, 150 mM NaCl, 1 mM CaCl₂, 1 mM MgCl₂, 1 mM MnCl2 pH 7.4).
The test compounds (i.e., the 2D-VCAM-1 variant polypeptides) were diluted in dilution buffer and added to VCAM-1-coated plates. […] Plates were spun down at 280×g for 5 minutes with assay buffer decanted by inversion before measuring fluorescence intensity (excitation=485 nm, emission=530 nm) with LJL Analyst HT 96.384 (Molecular Devices, Sunnyvale, Calif.).
FIG. 5 is a graph showing the cell adhesion index for anti-VLA4-antibody (used as a positive control for maximal inhibition of cell adherence), dilution buffer alone (“no treatment”, a control to show maximal cell adherence to the immobilized VCAM-1), 2D-VCAM-1 valiant Clone 46 (SEQ ID NO:12), Q38L-2D-VCAM-1 polypeptide (SEQ ID NO:10), and human 2D-VCAM-1 (SEQ ID NO:2). The cell adhesion index was calculated as (fluorescence intensity, VCAM-coated well)/(fluorescence intensity, non-CAM-1-coated well). […]

T1 sequence (P13612 34-1032, chain 1 of 2): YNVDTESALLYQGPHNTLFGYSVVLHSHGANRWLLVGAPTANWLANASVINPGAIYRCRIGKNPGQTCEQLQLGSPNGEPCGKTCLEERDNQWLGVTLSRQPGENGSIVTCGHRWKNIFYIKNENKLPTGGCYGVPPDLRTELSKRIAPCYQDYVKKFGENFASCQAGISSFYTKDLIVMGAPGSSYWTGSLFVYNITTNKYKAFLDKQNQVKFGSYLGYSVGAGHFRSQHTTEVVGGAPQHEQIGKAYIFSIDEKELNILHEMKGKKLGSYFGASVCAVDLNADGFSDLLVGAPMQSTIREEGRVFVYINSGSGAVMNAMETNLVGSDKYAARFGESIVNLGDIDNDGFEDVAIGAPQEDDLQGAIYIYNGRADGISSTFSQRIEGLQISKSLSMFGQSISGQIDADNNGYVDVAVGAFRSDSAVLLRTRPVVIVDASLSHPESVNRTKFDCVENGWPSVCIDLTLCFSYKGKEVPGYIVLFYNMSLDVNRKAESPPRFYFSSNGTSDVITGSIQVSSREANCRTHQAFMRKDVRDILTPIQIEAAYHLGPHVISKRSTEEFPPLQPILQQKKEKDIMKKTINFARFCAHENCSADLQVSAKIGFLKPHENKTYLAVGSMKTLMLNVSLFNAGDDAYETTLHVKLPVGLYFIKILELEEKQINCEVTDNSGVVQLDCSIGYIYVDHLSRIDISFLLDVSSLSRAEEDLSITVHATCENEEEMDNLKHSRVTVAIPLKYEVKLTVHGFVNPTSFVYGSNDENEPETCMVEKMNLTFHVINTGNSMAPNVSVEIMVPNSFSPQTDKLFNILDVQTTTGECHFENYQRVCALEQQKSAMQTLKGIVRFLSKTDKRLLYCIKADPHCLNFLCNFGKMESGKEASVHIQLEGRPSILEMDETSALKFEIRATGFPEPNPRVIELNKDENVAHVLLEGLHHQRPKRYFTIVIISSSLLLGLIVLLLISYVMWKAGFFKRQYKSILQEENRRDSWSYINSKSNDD
T1 sequence (P05556 21-798, chain 2 of 2): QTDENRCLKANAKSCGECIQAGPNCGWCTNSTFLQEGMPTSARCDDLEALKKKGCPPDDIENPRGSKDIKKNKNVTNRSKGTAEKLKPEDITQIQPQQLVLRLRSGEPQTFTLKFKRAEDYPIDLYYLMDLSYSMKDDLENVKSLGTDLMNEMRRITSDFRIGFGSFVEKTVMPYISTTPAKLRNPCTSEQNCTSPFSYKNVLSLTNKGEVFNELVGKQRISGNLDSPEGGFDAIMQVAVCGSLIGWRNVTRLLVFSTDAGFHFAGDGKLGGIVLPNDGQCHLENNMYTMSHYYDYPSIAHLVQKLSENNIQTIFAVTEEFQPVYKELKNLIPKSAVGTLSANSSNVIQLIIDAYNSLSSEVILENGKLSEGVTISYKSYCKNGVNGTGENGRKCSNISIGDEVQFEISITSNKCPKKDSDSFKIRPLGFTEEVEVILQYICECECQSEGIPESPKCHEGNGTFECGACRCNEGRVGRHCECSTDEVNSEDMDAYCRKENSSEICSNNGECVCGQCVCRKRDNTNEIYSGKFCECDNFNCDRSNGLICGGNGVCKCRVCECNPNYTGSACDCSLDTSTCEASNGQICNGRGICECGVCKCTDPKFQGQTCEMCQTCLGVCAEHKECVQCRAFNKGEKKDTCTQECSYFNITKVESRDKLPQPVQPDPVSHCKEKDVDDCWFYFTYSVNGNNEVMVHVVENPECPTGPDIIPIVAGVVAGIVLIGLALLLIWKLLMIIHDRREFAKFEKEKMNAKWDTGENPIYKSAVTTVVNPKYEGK
T2 sequence (chain, as listed by the source limits assumed, chain 1 of 2): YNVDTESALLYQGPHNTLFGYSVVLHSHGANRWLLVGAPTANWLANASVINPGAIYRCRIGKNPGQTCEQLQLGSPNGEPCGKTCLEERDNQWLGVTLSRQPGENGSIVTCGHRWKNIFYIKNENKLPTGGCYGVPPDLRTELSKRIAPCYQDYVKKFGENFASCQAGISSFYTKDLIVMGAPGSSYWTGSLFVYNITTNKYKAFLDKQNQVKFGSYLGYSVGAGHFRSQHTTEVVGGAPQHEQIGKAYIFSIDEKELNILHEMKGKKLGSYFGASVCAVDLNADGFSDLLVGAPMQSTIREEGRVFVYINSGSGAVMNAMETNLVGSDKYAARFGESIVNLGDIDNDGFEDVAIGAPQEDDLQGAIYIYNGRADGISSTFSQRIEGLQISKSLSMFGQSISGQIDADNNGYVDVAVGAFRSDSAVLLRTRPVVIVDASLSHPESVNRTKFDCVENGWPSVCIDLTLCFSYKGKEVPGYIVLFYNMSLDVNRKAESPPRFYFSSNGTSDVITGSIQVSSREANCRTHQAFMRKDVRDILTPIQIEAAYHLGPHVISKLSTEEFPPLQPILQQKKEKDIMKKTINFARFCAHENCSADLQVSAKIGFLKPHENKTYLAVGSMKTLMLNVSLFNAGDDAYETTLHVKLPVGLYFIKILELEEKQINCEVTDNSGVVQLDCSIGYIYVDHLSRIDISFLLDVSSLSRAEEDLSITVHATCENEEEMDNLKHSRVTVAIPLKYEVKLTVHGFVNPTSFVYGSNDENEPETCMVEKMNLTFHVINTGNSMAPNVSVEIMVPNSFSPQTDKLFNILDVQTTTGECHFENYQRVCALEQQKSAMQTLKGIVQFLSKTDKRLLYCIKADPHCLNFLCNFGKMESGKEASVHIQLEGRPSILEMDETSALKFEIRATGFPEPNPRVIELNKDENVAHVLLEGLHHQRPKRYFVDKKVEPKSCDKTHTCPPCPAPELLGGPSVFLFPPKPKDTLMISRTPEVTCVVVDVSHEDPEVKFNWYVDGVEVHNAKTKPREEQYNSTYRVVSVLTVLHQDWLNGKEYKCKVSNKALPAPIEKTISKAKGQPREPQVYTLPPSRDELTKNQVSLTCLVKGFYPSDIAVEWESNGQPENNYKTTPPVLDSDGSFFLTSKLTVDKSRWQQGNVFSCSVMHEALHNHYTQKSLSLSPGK
T2 sequence (chain, as listed by the source limits assumed, chain 2 of 2): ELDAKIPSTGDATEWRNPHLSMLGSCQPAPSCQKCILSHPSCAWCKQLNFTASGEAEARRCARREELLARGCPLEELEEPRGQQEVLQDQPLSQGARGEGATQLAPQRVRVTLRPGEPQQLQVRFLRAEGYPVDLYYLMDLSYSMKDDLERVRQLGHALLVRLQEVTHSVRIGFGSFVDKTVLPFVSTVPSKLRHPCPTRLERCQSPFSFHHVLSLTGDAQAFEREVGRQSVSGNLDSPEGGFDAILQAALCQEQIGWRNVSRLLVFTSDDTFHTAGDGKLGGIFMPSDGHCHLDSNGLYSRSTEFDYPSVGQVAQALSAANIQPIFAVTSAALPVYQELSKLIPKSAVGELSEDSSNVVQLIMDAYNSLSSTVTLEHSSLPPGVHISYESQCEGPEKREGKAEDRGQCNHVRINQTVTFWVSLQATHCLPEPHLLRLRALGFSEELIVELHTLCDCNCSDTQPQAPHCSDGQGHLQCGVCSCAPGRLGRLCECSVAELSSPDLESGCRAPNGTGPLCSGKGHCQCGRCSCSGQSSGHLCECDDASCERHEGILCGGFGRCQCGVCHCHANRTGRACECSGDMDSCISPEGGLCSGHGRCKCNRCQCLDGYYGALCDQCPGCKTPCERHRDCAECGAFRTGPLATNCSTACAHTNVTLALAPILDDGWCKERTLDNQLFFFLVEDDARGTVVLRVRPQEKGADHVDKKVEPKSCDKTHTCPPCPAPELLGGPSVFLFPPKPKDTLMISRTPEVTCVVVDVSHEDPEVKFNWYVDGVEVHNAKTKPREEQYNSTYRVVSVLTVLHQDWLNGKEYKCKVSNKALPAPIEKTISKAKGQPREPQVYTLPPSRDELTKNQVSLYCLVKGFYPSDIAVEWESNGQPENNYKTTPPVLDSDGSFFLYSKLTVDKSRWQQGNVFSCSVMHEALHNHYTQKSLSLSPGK

Row | Binder | IC50 of inhibition of U937 cell adhesion to immobilized 7D-VCAM-1 [1] | fold improvement in binding relative to Q38L-2D-VCAM-1 [2] [fold] | Kd [3] [nM] | binding result [4]
1 | B1 | 6.4 nM and 0.16 mg/ml | 1 | 77 | –
2 | B2 | – | 17 | 40 | –
3 | B3 | – | 1 | – | binds
4 | B4 | – | 80 | 2.6 | –
5 | B5 | 0.8 nM and 0.02 mg/ml | 74 | 1.2 | –
